The kcat is the number of substrate molecules converted per active site and unit of time at saturation. The kcat/KM is the second-order rate constant that governs catalysis at low substrate concentration. What is called KM is the concentration of substrate that gives half-maximal velocity.

The text below walks through data of patent US20210238260.

Sequences and labels used below:
B1: FIXa-R318Y/T343R/E410N (activated Factor IX variant, mature FIX numbering) (protein)
chain 1: YNSGKLEEFVQGNLERECMEEKCSFEEAREVFENTERTTEFWKQYVDGDQCESNPCLNGGSCKDDINSYECWCPFGFEGKNCELDVTCNIKNGRCEQFCKNSADNKVVCSCTEGYRLAENQKSCEPAVPFPCGRVSVSQTSKLTR
chain 2: VVGGEDAKPGQFPWQVVLNGKVDAFCGGSIVNEKWIVTAAHCVETGVKITVVAGEHNIEETEHTEQKRNVIRIIPHHNYNAAINKYNHDIALLELDEPLVLNSYVTPICIADKEYTNIFLKFGSGYVSGWGRVFHKGYSALVLQYLRVPLVDRATCLRSTKFRIYNNMFCAGFHEGGRDSCQGDSGGPHVTEVEGTSFLTGIISWGEECAMKGKYGIYTKVSRYVNWIKNKTKLT
B2: FIXa-K228N/K247N/N249S/R318Y/R338E/T343R/E410N (activated Factor IX variant, mature FIX numbering) (protein)
chain 1: B1 chain 1
chain 2: B1 chain 2 with K48N, K67N, N69S, R158E
B3: FIXa-K228N/K247N/N249S/R318Y/R338E/T343R/R403E (activated Factor IX variant, mature FIX numbering) (protein)
chain 1: B1 chain 1
chain 2: B1 chain 2 with K48N, K67N, N69S, R158E, R223E, N230E
B4: FIXa-K228N/R318Y/R338E/T343R/R403E/E410N (activated Factor IX variant, mature FIX numbering) (protein)
chain 1: B1 chain 1
chain 2: B1 chain 2 with K48N, R158E, R223E
B5: FIXa-K228N/K247N/N249S/R318Y/T343R/R403E/E410N (activated Factor IX variant, mature FIX numbering) (protein)
chain 1: B1 chain 1
chain 2: B1 chain 2 with K48N, K67N, N69S, R223E
B6: FIXa-D203N/F205T/E410N (protein)
chain 1: B1 chain 1
chain 2: B1 chain 2 with D23N, F25T, Y138R, R163T
B7: FIXa-D203N/F205T/K228N (protein)
chain 1: B1 chain 1
chain 2: B1 chain 2 with D23N, F25T, K48N, Y138R, R163T, N230E
B8: FIXa-D203N/F205T/R318Y (protein)
chain 1: B1 chain 1
chain 2: B1 chain 2 with D23N, F25T, R163T, N230E
B9: FIXa-D203N/F205T/R338E/R403E (protein)
chain 1: B1 chain 1
chain 2: B1 chain 2 with D23N, F25T, Y138R, R158E, R163T, R223E, N230E
B10: FIXa-K228N/R318Y/E410N (protein)
chain 1: B1 chain 1
chain 2: B1 chain 2 with K48N, R163T
B11: FIXa-D104N/K106S/R318Y/R338E/E410N (protein)
chain 1: B1 chain 1 with D104N, K106S
chain 2: B1 chain 2 with R158E, R163T
B12: FIXa-R318Y/R403E/E410N (protein)
chain 1: B1 chain 1
chain 2: B1 chain 2 with R163T, R223E
B13: FIXa-R318Y/R338E/R403E/E410N (protein)
chain 1: B1 chain 1
chain 2: B1 chain 2 with R158E, R163T, R223E
B14: FIXa-Y155F/R318Y/R338E/E410N (protein)
chain 1: B1 chain 1
chain 2: B1 chain 2 with R158E, R163T
B15: FIXa-D203N/F205T/R338A (protein)
chain 1: B1 chain 1
chain 2: B1 chain 2 with D23N, F25T, Y138R, R158A, R163T, N230E
B16: FIXa-D203N/F205T/R338E (protein)
chain 1: B1 chain 1
chain 2: B1 chain 2 with D23N, F25T, Y138R, R158E, R163T, N230E
B17: FIXa-R318Y/R338E/E410N (protein)
chain 1: B1 chain 1
chain 2: B1 chain 2 with R158E, R163T
B18: FIXa-R338E/R403E/E410N (protein)
chain 1: B1 chain 1
chain 2: B1 chain 2 with Y138R, R158E, R163T, R223E
B19: FIXa-K228N/R338E/R403E (protein)
chain 1: B1 chain 1
chain 2: B1 chain 2 with K48N, Y138R, R158E, R163T, R223E, N230E
B20: FIXa variant R318Y/R338E/N346Y/R403E/E410N (mature FIX numbering) (protein)
chain 1: B1 chain 1
chain 2: B1 chain 2 with R158E, R163T, N166Y, R223E
B21: FIXa variant R318Y/R338E/T343R/N346D/R403E/E410N (mature FIX numbering) (protein)
chain 1: B1 chain 1
chain 2: B1 chain 2 with R158E, N166D, R223E
B22: FIXa variant R318Y/R338E/Y345A/N346D/R403E/E410N (mature FIX numbering) (protein)
chain 1: B1 chain 1
chain 2: B1 chain 2 with R158E, R163T, Y165A, N166D, R223E
B23: FIXa variant R318Y/R338E/T343R/N346Y/R403E/E410N (mature FIX numbering) (protein)
chain 1: B1 chain 1
chain 2: B1 chain 2 with R158E, N166Y, R223E
B24: FIXa variant R318Y/R338E/T343R/R403E/E410N (mature FIX numbering) (protein)
chain 1: B1 chain 1
chain 2: B1 chain 2 with R158E, R223E
B25: FIXa variant R318Y/R338E/Y345A/R403E/E410N (mature FIX numbering) (protein)
chain 1: B1 chain 1
chain 2: B1 chain 2 with R158E, R163T, Y165A, R223E

Residue numbers refer to the chain shown, from its start. Names and notes keep the numbering of the source. Values joined by “and” are separate entries in the source; they are usually repeats but may differ in a detail not shown here. Equal entries are not always repeated.

Chain of Factor X (FX), P00742 (P00742 whole entry, looked up): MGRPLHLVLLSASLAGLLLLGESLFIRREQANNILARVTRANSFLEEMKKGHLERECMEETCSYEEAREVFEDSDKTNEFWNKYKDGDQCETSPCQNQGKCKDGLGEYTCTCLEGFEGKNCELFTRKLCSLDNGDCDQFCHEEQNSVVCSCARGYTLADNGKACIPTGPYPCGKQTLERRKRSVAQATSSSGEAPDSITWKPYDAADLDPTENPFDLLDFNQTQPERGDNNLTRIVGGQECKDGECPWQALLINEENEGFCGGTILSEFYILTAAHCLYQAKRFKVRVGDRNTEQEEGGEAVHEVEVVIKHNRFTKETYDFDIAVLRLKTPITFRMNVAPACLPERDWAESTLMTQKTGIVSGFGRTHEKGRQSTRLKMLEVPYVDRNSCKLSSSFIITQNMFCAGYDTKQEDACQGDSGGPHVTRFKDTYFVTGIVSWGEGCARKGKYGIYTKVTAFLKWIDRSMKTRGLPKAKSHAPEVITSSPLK
Chain of Factor X, P00742 (P00742 whole entry, looked up): as above

For one data set, the target named is Factor X (FX) zymogen, active site titrated and DFP/EGR-cmk treated, P00742.
Chain of Factor X (FX) zymogen, active site titrated and DFP/EGR-cmk treated, P00742 (P00742 whole entry, looked up): as above
Test: not given
Regarding B1, the “% of WT kcat/KM (against recombinant Catalyst Biosciences WT FIXa)” value is reported as 135%; the kcat/KM (catalytic activity for FX activation; Xase complex with FVIIIa, PC/PS vesicles and Ca2+; fluorogenic Spectrafluor FXa read-out) is 6.2e+07 M⁻¹ s⁻¹.

Regarding B2, the “% of WT kcat/KM (against recombinant Catalyst Biosciences WT FIXa)” value amounted to 278%; the kcat/KM (catalytic activity for FX activation; Xase complex with FVIIIa, PC/PS vesicles and Ca2+; fluorogenic Spectrafluor FXa read-out) was determined as 1.3e+08 M⁻¹ s⁻¹.

Regarding B3, the “% of WT kcat/KM (against recombinant Catalyst Biosciences WT FIXa)” value was found to be 636%; the kcat/KM (catalytic activity for FX activation; Xase complex with FVIIIa, PC/PS vesicles and Ca2+; fluorogenic Spectrafluor FXa read-out) was 2.9e+08 M⁻¹ s⁻¹.

B4: the “% of WT kcat/KM (against recombinant Catalyst Biosciences WT FIXa)” value stood at 593%; the kcat/KM (catalytic activity for FX activation; Xase complex with FVIIIa, PC/PS vesicles and Ca2+; fluorogenic Spectrafluor FXa read-out) was 2.7e+08 M⁻¹ s⁻¹.

As to B5, the “% of WT kcat/KM (against recombinant Catalyst Biosciences WT FIXa)” value stood at 153%; the kcat/KM (catalytic activity for FX activation; Xase complex with FVIIIa, PC/PS vesicles and Ca2+; fluorogenic Spectrafluor FXa read-out) turned out to be 7.1e+07 M⁻¹ s⁻¹.

A further data set addresses Factor X (FX), P00742.
Test: not given
For B6, the “% of WT kcat/KM” value was found to be 94%, the turnover number (kcat) stood at 1.7 s⁻¹ and the kcat/KM stood at 4.2e+07 M⁻¹ s⁻¹.

With B7, the “% of WT kcat/KM” value came out at 31%, the kcat was found to be 0.6 s⁻¹ and the kcat/KM turned out to be 1.4e+07 M⁻¹ s⁻¹.

Take B8: the “% of WT kcat/KM” value turned out to be 45%, the kcat was determined as 0.9 s⁻¹ and the kcat/KM is 2e+07 M⁻¹ s⁻¹.

Take B9: the “% of WT kcat/KM” value is 42%, the kcat turned out to be 0.9 s⁻¹ and the kcat/KM was determined as 1.9e+07 M⁻¹ s⁻¹.

Regarding B10, the catalytic constant (kcat) amounted to 5 s⁻¹.

For the protein B11, the kcat was determined as 4.8 s⁻¹.

Consider B12, for which the kcat worked out at 2.3 s⁻¹.

Turning to B13, the “catalytic activity (kcat/KM) for activation of FX” value was “displayed some of the greatest increases in catalytic activity”; the kcat was 5 s⁻¹ and 5.8 s⁻¹.

Take B14: the catalytic constant (kcat) came out at 5.6 s⁻¹.

Take B15: the “% of WT kcat/KM” value is 139%, the kcat worked out at 2.3 s⁻¹ and the kcat/KM was 6.2e+07 M⁻¹ s⁻¹.

Consider B16, for which the “% of WT kcat/KM” value came out at 234%, the kcat was found to be 2.5 s⁻¹ and the catalytic efficiency (kcat/KM) stood at 1e+08 M⁻¹ s⁻¹.

The next data set addresses Factor X, P00742.
Test: not given
In the case of B6, the KM was determined as 0.0455 µM.

In the case of B7, the Michaelis-Menten constant (KM) was found to be 0.0399 µM.

Regarding B17, the KM amounted to 0.0142 µM.

With B8, the KM is 0.0475 µM.

Take B9: the KM turned out to be 0.0511 µM.

Turning to B10, the KM was 0.042 µM.

Consider B11, for which the KM was 0.0189 µM.

As for B18, the KM is 0.0455 µM.

For B12, the KM was 0.0883 µM.

In the case of B19, the KM was found to be 0.0592 µM.

In the case of B13, the KM worked out at 0.0455 µM.

Regarding B14, the KM amounted to 0.016 µM.

In the case of B15, the Michaelis constant (KM) amounted to 0.0385 µM.

In the case of B16, the KM amounted to 0.0241 µM.

The target in a further data set is antithrombin III (plasma purified human AT-III), used as the AT-III/unfractionated heparin complex. The data set is described as follows: K0.5 ratio to Catalyst Biosciences WT FIXa, AT-III/UFH inhibition assay.
Take B6: the K0.5-mut/K0.5-wt stood at 19.5 fold.

Turning to B7, the K0.5-mut/K0.5-wt was determined as 42.5 fold.

B17: the K0.5-mut/K0.5-wt turned out to be 179 fold.

Turning to B8, the K0.5-mut/K0.5-wt amounted to 374 fold.

Consider B9, for which the K0.5-mut/K0.5-wt came out at 78.6 fold.

As for B10, the K0.5-mut/K0.5-wt turned out to be 24.6 fold.

On to B11, for which the K0.5-mut/K0.5-wt was determined as 327 fold.

Take B18: the K0.5-mut/K0.5-wt stood at 122 fold.

B12: the K0.5-mut/K0.5-wt worked out at 366 fold.

Consider B19, for which the K0.5-mut/K0.5-wt is 86.8 fold.

As to B13, the K0.5-mut/K0.5-wt came out at 304 fold.

For the protein B14, the K0.5-mut/K0.5-wt was 56.8 fold.

On to B15, for which the K0.5-mut/K0.5-wt is 21.9 fold.

B16: the K0.5-mut/K0.5-wt worked out at 60.5 fold.

The target in a further data set is T1, Antithrombin III (plasma purified human AT-III, Molecular Innovations). The experiment in a line: same assay; ratio to recombinant wild-type FIXa (Catalyst Biosciences WT).
In the case of B6, the K0.5-mut/K0.5-wt stood at 19.5.

Consider B7, for which the K0.5-mut/K0.5-wt was 42.5.

Consider B17, for which the K0.5-mut/K0.5-wt was determined as 179.

Take B8: the K0.5-mut/K0.5-wt turned out to be 374.

B9: the K0.5-mut/K0.5-wt came out at 78.6.

For B10, the K0.5-mut/K0.5-wt is 24.6.

On to B11, for which the K0.5-mut/K0.5-wt came to 327.

On to B18, for which the K0.5-mut/K0.5-wt came out at 122.

In the case of B12, the K0.5-mut/K0.5-wt is 366.

For B19, the K0.5-mut/K0.5-wt amounted to 86.8.

For B13, the K0.5-mut/K0.5-wt is 304.

Regarding B14, the K0.5-mut/K0.5-wt was found to be 56.8.

For B15, the K0.5-mut/K0.5-wt came to 21.9.

As for B16, the K0.5-mut/K0.5-wt stood at 60.5.

A further data set concerns the target plasma purified human AT-III (antithrombin III), in complex with full-length unfractionated heparin (UFH). The experiment in a line: ratio of K0.5 (lower-limit value) of the variant to K0.5 of Catalyst Biosciences WT FIXa, AT-III/UFH inhibition.
As for B20, the K0.5-mut/K0.5-wt came out at 517.

For the protein B21, the K0.5-mut/K0.5-wt was 517.

B22: the K0.5-mut/K0.5-wt amounted to 517.

As to B23, the K0.5-mut/K0.5-wt worked out at 517.

For B24, the K0.5-mut/K0.5-wt was determined as 517.

Consider B25, for which the K0.5-mut/K0.5-wt turned out to be 517.

For a further data set, the target named is T1, Antithrombin III (plasma purified human …). The data set is described as follows: AT-III/UFH inhibition: FIXa variant incubated with AT-III dilutions in excess unfractionated heparin, residual cleavage of Mesyl-D-CHG-Gly-Arg-AMC; K0.5 = AT-III concentration for 50% inhibition (IC50).
Protein B6 yielded a K0.5 of 377 nM.

For B7, the K0.5 was 822 nM.

Protein B17 displayed a K0.5 of 3460 nM.

In turn, B8 registered a K0.5 of 7230 nM.

B9: the K0.5 was 1520 nM.

The protein B10 displayed a K0.5 of 475 nM.

For B11, the K0.5 was determined as 6330 nM.

Consider B18, for which the K0.5 came to 2350 nM.

Turning to B12, the K0.5 was 7070 nM.

Protein B19 returned a K0.5 of 1680 nM.

In turn, B13 registered a K0.5 of 5880 nM.

For B14, the K0.5 is 1100 nM.

As for B15, the K0.5 was 423 nM.

B16 gave a K0.5 of 1170 nM.
